Data on one substance can be found in article PMC5084272.

“And” between values parts separate entries of the source, which are not always exact repeats. Equal values may be shown once.

The target in the experiment is EGFP-labeled Kif15 (EGFP-Kif15) (human). The experiment is described as follows: single-molecule fluorescence intensity and photobleaching steps.

Consider “EGFP-labeled Kif15 (EGFP-Kif15) (natural protein)”, for which the stoichiometry N (in general, the number of molecules, sites or subunits per partner or assembly) is 2 and > 2.
